The labels stand for the following.
B1: M32 myosin peptide (NM-MHC IIA A1907-G1938) (peptide, UniProt P35579-1 1907-1938, looked up)
peptide: Ac-ADAMNREVSSLKNKLRRGDLPFVVPRRMARKG-NH2
notes: nonmuscle myosin heavy chain IIA (NM-MHC IIA), human, residues A1907-G1938; source: synthetic peptide, bought: Peptide 2.0, Inc
B2: S100A4 (wild type, full-length) (natural protein)
chain: not shown
notes: S100A4, wild type, called full-length in the NMR experiment with M111; The tag and the vector are not described; also called Mts1; metastasin; source: E. coli BL21(DE3), purified (Ni-NTA, Superdex 75)
B3: M32 peptide (A1907-G1938 of human nonmuscle myosin heavy chain IIA) (peptide, UniProt P35579-1 1907-1938, looked up)
peptide: Ac-ADAMNREVSSLKNKLRRGDLPFVVPRRMARKG-NH2
notes: as for B1
B4: M200, C-terminal fragment of human NM-MHC IIA (residues Q1761-E1960) (domain or fragment)
chain: QINTDLNLERSHAQKNENARQQLERQNKELKVKLQEMEGTVKSKYKASITALEAKIAQLEEQLDNETKERQAACKQVRRTEKKLKDVLLQVDDERRNAEQYKDQADKASTRLKQLKRQLEEAEEEAQRANASRRKLQRELEDATETADAMNREISSLKNKLRRGDLPFVVPRRMARKGAGDGSDEEVDGKADGAEAKPAE
modifications: Parallel coiled-coil dimer. N-terminal … tag omitted. The paper prints V1913I, but by its own numbering (D1908-R1923, G1938, G1940, D1941) 1913 is E and the only adjacent Val is V1914, so …

Common to all, as to settings: both partners purified
Assay [1] concerns the target B2. Nature of the assay: not stated; K0 of Scheme 1: binding in the absence of Ca2+; the experiment behind the limit is not told.
The target of assay [2] is B2. Nature of the assay: fluorescence polarisation; competition: displacement of F-M16^N (5 μM) from S100A4 (5 μM) by increasing M32 or M16^N, with Ca2+; fit to a competitive single-site model with Kd of F-M16^N fixed at 2 μM.
The target of assay [3] is B2. The description is as above. This is another data set of the same source.
For assay [4], the target named is B2. The assay is described as follows: stopped-flow Quin-2 fluorescence (Ca2+ dissociation); S100A4 + Ca2+ premixed with peptide or fragment, mixed with 100 μM Quin-2; 100 mM NaCl, 10 mM Hepes, 100 μM Ca2+, pH 7.5, 20 °C (M16^N also in 20 mM NaCl, 20 mM Tris, 1 mM DTT); apparent.
Assay [5] has as its target B4. Nature of the assay: turbidity; apparent absorbance at 300 nm, manual mixing; 5 μM M200 filaments in 100 mM NaCl, 10 mM Hepes, 0.1 mM Ca2+, pH 7.5, 20 °C; S100A4 added, then EGTA, then Ca2+.
The target of assay [6] is T1, S100A4 (wild type) (UniProt P26447 1-101).
T1 construct: S100A4, wild type; predominantly a dimer under the conditions of the kinetic analysis; Concentrations are stated per monomer chain; only the Ni-NTA column is told; also called Mts1; metastasin; source: E. coli BL21(DE3), purified (Ni-NTA, Superdex 75 gel filtration)
Nature of the assay: stopped-flow Quin-2 fluorescence (Ca2+ dissociation rate constant against [M32]); 10 uM S100A4 with Ca2+ premixed with M32 (0-50 uM), mixed with 100 uM Quin-2; kobs from single exponentials fitted against [M32] to a quadratic binding equation; apparent; legend says conditions as for Fig. 2c (taken as Fig. 5c: 100 mM NaCl, 10 mM Hepes, 100 uM Ca2+, pH 7.5, 20 C).

Assay [7] has as its target B2. The assay is described as follows: turbidity; as a12 in the presence of 250 μM M32 or 250 μM M16^N (competition for S100A4).
Assay [8] concerns the target B2. Nature of the assay: turbidity; Ca2+ dependence of the turbidity assay of M200 with S100A4; details in Supplementary Data.
Assay [9] has as its target B2. The assay is described as follows: stopped-flow Quin-2 fluorescence (Ca2+ dissociation); S100A4 + Ca2+ premixed with peptide or fragment, mixed with 100 μM Quin-2; 100 mM NaCl, 10 mM Hepes, 100 μM Ca2+, pH 7.5, 20 °C (M16^N also in 20 mM NaCl, 20 mM Tris, 1 mM DTT); apparent. This is another data set of the same source.

As a reminder, the koff is a measure of how fast the partners let go of each other.

T1 sequence (P26447 whole entry, one chain of several): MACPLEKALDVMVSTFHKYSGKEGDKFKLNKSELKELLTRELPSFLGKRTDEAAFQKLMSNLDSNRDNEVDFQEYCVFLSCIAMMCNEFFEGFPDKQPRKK

On to B1, for which the Kd in assay [1] was above 100000 nM; in [3] it was 3000 nM; in [4], 400 nM. Also, the “KD (model in which one M32 spans two S100A4 monomers)” value in assay [2] was 1500 nM.

For B2, the “stoichiometry N” value in [5] is 2 S100A4 monomer per M200 polypeptide chain.

In the case of B3, in [6], the Kd was found to be 440 nM.

Regarding B4, the Kd in assay [7] was around 1 nM; in assay [1], above 100000 nM; in assay [8], at most 3 nM. In addition, in assay [9], the koff is below 0.3 s⁻¹.

Source of the values: paper PMC3025356, “Mechanism of the Ca^2+-Dependent Interaction between S100A4 and Tail Fragments of Nonmuscle Myosin Heavy Chain IIA” (Journal of Molecular Biology, 2011).
